Measurements taken from paper PMC3936774.

Legend:
Test in all cases: fluorescence polarization
[1] = molecular target: Ec Hfq R17W (Escherichia coli, UniProt P0A6X3 1-102, R17W)
[2] = molecular target: Sa Hfq Q31W (Staphylococcus aureus, UniProt A0A0H3JV59 1-77, Q31W)
[3] = molecular target: Hfq WT (Escherichia coli, UniProt P0A6X3 1-102)
[4] = molecular target: Ec Hfq Y83W (Escherichia coli, UniProt P0A6X3 1-102, Y83W)
[5] = molecular target: Ec Hfq Y25W (Escherichia coli, UniProt P0A6X3 1-102, Y25W)
[6] = molecular target: Ec Hfq F11W (Escherichia coli, UniProt P0A6X3 1-102, F11W)
[7] = molecular target: Ec Hfq F39W (Escherichia coli, UniProt P0A6X3 1-102, F39W)
[8] = molecular target: Ec Hfq Q95W (Escherichia coli, UniProt P0A6X3 1-102, Q95W)
[9] = molecular target: Sa Hfq F25W (Staphylococcus aureus, UniProt A0A0H3JV59 1-77, F25W)
[10] = molecular target: Ec Hfq Q33W (Escherichia coli, UniProt P0A6X3 1-102, Q33W)
[11] = molecular target: Ec Hfq G77W (Escherichia coli, UniProt P0A6X3 1-102, G77W)
[12] = molecular target: Ec Hfq K31W (Escherichia coli, UniProt P0A6X3 1-102, K31W)
[13] = molecular target: Sa Hfq WT (Staphylococcus aureus, UniProt A0A0H3JV59 1-77)

Question: Which results are given for UUUUUU (ssRNA) [U6 (fluorescein)]?
Answer: Kd [1]: 1600 ± 80 nM; Kd [2]: 114 ± 23.2 nM; Kd [3]: 766 ± 73.7 nM; Kd [4]: 778 ± 254 nM; Kd [5]: 837 ± 62.5 nM; Kd [6]: 503 ± 55.5 nM; Kd [7]: 2000 ± 400 nM; Kd [8]: 848 ± 289 nM; Kd [9]: 41.9 ± 25.1 nM; Kd [10]: 405 ± 182 nM; Kd [11]: 380 ± 93.2 nM; Kd [12]: 1120 ± 73 nM; binding result [13]: binds
